Measurements published in patent US20090004190A1, “Rage Fusion Proteins And Methods Of Use” (priority 2006, published 2009).
Several values for one entry are separate records, joined by “and”; a condition that tells them apart may be missing. Identical values can stand only once.

Experiments:
[1] = Pharmacokinetic profile of TTP-4000 after IV injection (plasma ELISA); format: in vivo; details: monkeys, single IV bolus 5 mg/kg, after ligands saturated, FIG. 11
Description: Blood samples (approximately 1.0 mL) were collected at pre-dose (i.e., prior to injection of the TTP4000), or at 0.083, 0.25, 0.5, 2, 4, 8, 12, 24, 48, 72, 96, 120, 168, 240, 288, and 336 hours post dose into tubes containing (lithium heparin). Following collection, the tubes were placed on wet ice (maximum 30 minutes) until centrifugation under refrigeration (at 2 to 8° C.) at 1500×g for 15 minutes. Each harvested plasma sample was then stored frozen (−70° C.±10° C.) until assayed for RAGE polypeptide using an ELISA at various time-points following the injection, as described in Example 6.
Initially, 50 uL of the RAGE specific monoclonal antibody 1HB1011 at a concentration of 10 ug/mL in 1×PBS pH 7.3 is coated on plates via overnight incubation. When ready for use, plates are washed three times with 300 uL of 1× Imidazole-Tween wash buffer and blocked with 1% BSA. […] The samples are allowed to incubate at room temperature for one hour. After incubation, the plates are plates are washed three times. A Goat Anti-human IgG11 (Sigma A3312) […] conjugate in 1×PBS with 1% BSA is added and allowed to incubate at room temperature for 1 hour. The plates are washed three times. Color was elucidated with paranitrophenylphosphate.

[2] = test system: Fc receptor; test: Fc receptor activation: TNF-α secretion from THP-1 cells; format: cell-based; details: well precoated with 10 ug/well heat aggregated protein, 24 hours, FIG. 12
Description: Fc stimulation results in TNF-α secretion.

[3] = test system: Zucker diabetic rats, restenosis following vascular injury; test: Diabetic rat model of restenosis (balloon injury of left common carotid artery); format: in vivo; details: for Luminal area / Medial area: IP, 21 days
Description: In these experiments, balloon injury of left common carotid artery was performed in Zucker diabetic and nondiabetic rats using standard procedure. […] A maintenance dose was delivered every other day until day 7 after injury (i.e., at day 1, 3, 5 and 7 after injury). The maintenance dose was high=1 mg/animal for one group, or low=0.3 mg/animal for the second group. To measure vascular smooth muscle cell (VSMC) proliferation, animals were sacrificed at 4 days and 21 days after injury.
For the measurement of cell proliferation, 4 day animals received intraperitoneal injection of bromodeoxyuridine (BrDdU) 50 mg/kg at 18, 12, and 2 hours before euthanasia. After sacrifice, the entire left and right carotid arteries were harvested. Specimens were stored in Histochoice for at least 24 hours before embedding. Assessment of VSMC proliferation was performed using mouse anti-BrdU monoclonal antibody. A fluorescence labeled goat anti-mouse secondary antibody was applied. The number of BrdU-positive nuclei per section were counted by two observers blinded to the treatment regimens.
The remaining rats were sacrificed at 21 days for morphometric analysis. Morphometric analyses were performed by an observer blinded to the study groups, using computerized digital microscopic planimetry software Image-Pro Plus on serial sections, ([…]) carotid arteries stained by Van Gieson staining. All data were expressed as mean±SD. Statistical analysis was performed with use of SPSS software. Continuous variables were compared using unpaired t tests. A values of P≦0.05 was considered to be statistically significant.

[4] = test system: allogeneic rejection of transplanted islet cells; test: Allogeneic islet transplantation (BALB/c islets in streptozotocin-diabetic B6 mice); format: in vivo, mouse; details: for day of graft loss, each animal: blood glucose exceeded 250 mg/dl; for day of graft loss, Mean: n 8
Description: C57BL/6J (6-8 week old) (B6) mice were made diabetic by a single intravenous injection of streptozotocin (STZ) (Sigma Chemical Co., St. Louis, Mo.) at 200 mg/kg. BALB/cJ (6-8 week old) (BALB) mice served as donors for islet transplantation, thus providing an allo-mismatch for islet transplants.
Mice (BALB/c) were anesthetized with ketamine HCl/xylazine HCl solution (Sigma, St. Louis Mo.). After intraductal injection of 3 ml of cold Hank's balanced salt solution (HBSS, Gibco, Grand Island N.Y.) containing 1.5 mg/ml of collagenase P (Roche Diagnostics, Branchburg, N.J.), pancreata were surgically procured and digested at 37° C. for 20 mins. Islets were washed with HBSS and purified by discontinuous gradient centrifugation using Polysucrose 400 (Cellgro, Herndon Va.) having four different densities (26%, 23%, 20%, and 11%). The tissue fragments at the interface of the 20% and 23% layers were collected, washed and resuspended in HBSS. Individual islets, free of attached acinar, vascular and ductal tissues were handpicked under an inverted microscope, yielding highly purified islets for transplantation.
Streptozotocin-induced diabetic C57BL/6 (B6) mice received islet grafts within 2 days of the diagnosis of diabetes. BALB/cJ (6-8 week old) (BALB) mice served as donors for allogeneic islet transplantation. For transplantation, 500-600 freshly isolated islets (i.e., approximately 550 islet equivalents) from donor mice were picked up with an infusion set and transplanted into the subcapular space of the right kidney of a recipient.
Test compounds were administered as soon as the islets were transplanted; administration continued for about 60 days, depending upon how the control animal was faring.
Islet graft function was monitored by serial blood glucose measurements daily for the first 2 weeks after islet transplantation, followed by every other day thereafter. Reversal of diabetes was defined as blood a glucose level of less than 200 mg/dl on two consecutive measurements. Graft loss was determined when blood glucose exceeded 250 mg/dl on two consecutive measurements.

[5] = High dose 1.0 mg/animal qod × 4, loading dose 3 mg/animal
[6] = Low dose 0.3 mg/animal qod × 4, loading dose 3 mg/animal
[7] = 300 ug + 30 ug qod ip (Group 3)
[8] = 300 ug LD + 100 ug qod ip (Group 1)

B1: TTP-4000: four domain RAGE fusion protein: human RAGE V and C1 domains with interdomain linkers (to residue 251) fused to human IgG1 CH2 and CH3; SEQ ID NO: 34/56 (protein, listed as Homo sapiens)
chain: QNITARIGEPLVLKCKGAPKKPPQRLEWKLNTGRTEAWKVLSPQGGGPWDSVARVLPNGSLFLPAVGIQDEGIFRCQAMNRNGKETKSNYRVRVYQIPGKPEIVDSASELTAGVPNKVGTCVSEGSYPAGTLSWHLDGKPLVPNEKGVSVKEQTRRHPETGLFTLQSELMVTPARGGDPRPTFSCSFSPGLPRHRALRTAPIQPRVWEPVPLEEVQLVVEPEGGAVAPPSVFLFPPKPKDTLMISRTPEVTCVVVDVSHEDPEVKFNWYVDGVEVHNAKTKPREEQYNSTYRVVSVLTVLHQDWLNGKEYKCKVSNKALPAPIEKTISKAKGQPREPQVYTLPPSRDELTKNQVSLTCLVKGFYPSDIAVEWESNGQPENNYKTTPPVLDSDGSFFLYSKLTVDKSRWQQGNVFSCSVMHEALHNHYTQKSLSLSPGK
Q: What does the source list for B1?
A: terminal half-life [1]: greater than 300 hours; TNF generated [2]: less than 2 ng/well; vascular smooth muscle cell proliferation (BrdU-positive nuclei) ([3]; 4 days after injury, dose-responsive, FIG. 13B): significantly reduced; Luminal area [3, 5]: 0.16 ± 0.02 mm^2; Medial area [3, 5]: 0.11 ± 0.01 mm^2; Luminal area [3, 6]: 0.18 ± 0.04 mm^2; Medial area [3, 6]: 0.11 ± 0.02 mm^2; day of graft loss, each animal [4, 7]: 13 day and 14 day and 12 day (2×) and 11 day (2×) and 8 day (2×); day of graft loss, Mean [4, 7]: 11.125 days; day of graft loss, each animal [4, 8]: 14 day (2×) and 16 day (2×) and 13 day (2×) and 12 day and 15 day; day of graft loss, Mean [4, 8]: 14.125 days
